Measured values from US20200270339A1 (CEPHALON, published 2020).
Positions count from the first letter of the chain named. Where “and” joins values, the source holds several entries; their conditions need not be identical. Equal entries are not always repeated. Where two headings read alike, the source gives them in different places. Values belong to the binder of their own block, whether it stands above or below them.

What was measured:
[1] = biological target: T1, human IL-15 complexed with the IL-15 Receptor-alpha (human, UniProt P40933 49-162); assay: cell-based or functional assay
Target sequence in this assay (P40933 49-162 limits assumed, one chain of several): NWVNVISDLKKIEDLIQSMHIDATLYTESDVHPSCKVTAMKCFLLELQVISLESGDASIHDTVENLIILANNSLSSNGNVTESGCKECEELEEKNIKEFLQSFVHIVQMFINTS

[2] = biological target: T1, human IL-15 complexed with the IL-15 …; assay: cell-based or functional assay; remark: listed apart in the source
Target sequence in this assay (P40933 49-162 limits assumed, one chain of several): as above

[3] = biological target: T1, human IL-15 complexed with the IL-15 …; assay: cell-based or functional assay; remark: listed apart in the source
Target sequence in this assay (P40933 49-162 limits assumed, chain 1 of 2, one chain of several): as the sequence (P40933 49-162 limits assumed, one chain of several) above

[4] = biological target: T1, human IL-15 complexed with the IL-15 …; assay: SPR
Target sequence in this assay (P40933 49-162 limits assumed, one chain of several): as above

[5] = biological target: T1, human IL-15 complexed with the IL-15 …; assay: SPR; remark: listed apart in the source
Target sequence in this assay (P40933 49-162 limits assumed, one chain of several): as above

[6] = biological target: T1, human IL-15 complexed with the IL-15 …; assay: SPR; remark: listed apart in the source
Target sequence in this assay (P40933 49-162 limits assumed, one chain of several): as above

[7] = biological target: T1, human IL-15 complexed with the IL-15 …; assay: SPR; remark: listed apart in the source
Target sequence in this assay (P40933 49-162 limits assumed, one chain of several): as above

[8] = biological target: T1, human IL-15 complexed with the IL-15 …; assay: SPR; remark: listed apart in the source
[9] = biological target: T1, human IL-15 complexed with the IL-15 …; assay: SPR; remark: listed apart in the source
[10] = biological target: T1, human IL-15 complexed with the IL-15 …; assay: SPR; remark: listed apart in the source
IL-4 = biological target: T2, IL-4 (UniProt P05112 25-153); assay: SPR, antibody captured on Protein A chip
T2 sequence (looked up): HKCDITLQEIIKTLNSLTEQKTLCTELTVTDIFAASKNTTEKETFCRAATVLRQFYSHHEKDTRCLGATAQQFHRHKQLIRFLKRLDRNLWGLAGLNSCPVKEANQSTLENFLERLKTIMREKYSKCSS

IL-7 = biological target: T3, IL-7 (UniProt P13232 26-177); assay: SPR, antibody captured on Protein A chip
T3 sequence (looked up): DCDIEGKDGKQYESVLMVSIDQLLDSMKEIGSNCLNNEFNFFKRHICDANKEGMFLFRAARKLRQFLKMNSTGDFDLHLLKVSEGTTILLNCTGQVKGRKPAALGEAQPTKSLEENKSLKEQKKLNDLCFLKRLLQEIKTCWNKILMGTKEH

IL-2 = IL-2 (UniProt P60568 21-153); assay: SPR, antibody captured on Protein A chip
IL-2, sequence (P60568 21-153 limits assumed): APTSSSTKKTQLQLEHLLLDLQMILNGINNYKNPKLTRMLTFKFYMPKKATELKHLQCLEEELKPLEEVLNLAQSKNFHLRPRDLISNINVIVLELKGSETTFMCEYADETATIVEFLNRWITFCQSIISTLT

IL-21 = IL-21 (UniProt Q9HBE4 30-162, limits assumed); assay: SPR, antibody captured on Protein A chip
IL-21, sequence (Q9HBE4 30-162 limits assumed): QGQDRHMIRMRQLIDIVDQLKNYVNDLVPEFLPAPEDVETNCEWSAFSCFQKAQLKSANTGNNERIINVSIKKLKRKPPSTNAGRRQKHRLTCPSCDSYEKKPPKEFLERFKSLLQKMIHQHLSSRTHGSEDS

IL-9 = IL-9 (UniProt P15248 19-144); assay: SPR, antibody captured on Protein A chip
IL-9, sequence (P15248 19-144 limits assumed): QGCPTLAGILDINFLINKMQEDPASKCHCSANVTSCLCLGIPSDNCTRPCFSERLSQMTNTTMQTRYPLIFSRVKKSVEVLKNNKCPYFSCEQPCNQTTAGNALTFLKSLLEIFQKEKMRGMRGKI

[11] = biological target: T4, uncomplexed IL-15 Receptor α (human); assay: SPR, antibody captured on Protein A chip
T4 construct: also called IL-15Rα; IL15Rα
T4 chain: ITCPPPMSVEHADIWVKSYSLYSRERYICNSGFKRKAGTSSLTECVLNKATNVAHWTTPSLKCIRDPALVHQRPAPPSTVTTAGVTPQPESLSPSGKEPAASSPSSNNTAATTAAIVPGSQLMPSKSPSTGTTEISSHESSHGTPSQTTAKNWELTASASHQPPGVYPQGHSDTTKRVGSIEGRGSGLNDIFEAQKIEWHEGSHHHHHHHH

[12] = biological target: T1, human IL-15 complexed with the IL-15 …; assay: SPR; remark: listed apart in the source
[13] = biological target: T1, human IL-15 complexed with the IL-15 …; assay: cell-based or functional assay; remark: listed apart in the source

- NK-92 cell proliferation assay, potency (IC50) [1]: 0.0074 nM
- fold improvement of IC50 in the NK-92 cell proliferation assay compared to Antibody 4 [2]: ≥ 10 fold
- IC 50 (NK-92) in pM [3]: 6.3 pM
B1: Antibody 11 (antibody, V domains shown)
VH: QVQLQESGPGLVKPSGTLSLTCAVSGGSISSSNWWSWVRQPPGKGLEWIGEIYHYGYTNYNPSLKSRVTISVDKSKNQFSLKLISVTAADTAVYYCAREGIGWPSFDYWGQGTLVTVSS
VL: SSELTQDPAASVALGQTVRITCQGDTLRNYYASWYQQKPGQAPILVIYGKNNRPSGIPDRFSGSSSGNTASLTITGAQAEDEADYYCNSRDSSGKNLVFGGGTKLTVLG

- Kd [5]: 0.765 nM
B8: VH_N058Q (antibody, V domains shown)
VH: B1 VH with Y55S, Y57N, N59Q
VL: SSELTQDPAASVALGQTVRITCQGDTLRNYYASWYQQKPGQAPILVIYGKNNRPSGIPDRFSGSSSGNTASLTITGAQAEDEADYYCNSRDSSGKNLVFGGGTKLTVL

- Kd [5]: 0.64 nM
B14: VH_T057D (antibody, V domains shown)
VH: B1 VH with Y55S, Y57N, T58D
VL: B8 VL
notes: Antibody 4 with one substitution; also called ANTIBODY 25

- Kd [7]: 2.15 nM
B16: VL_D092S (antibody, V domains shown)
VH: B1 VH with Y55S, Y57N
VL: B8 VL with D91S
notes: Antibody 4 with one substitution; also called ANTIBODY 16

- Kd [6]: 0.892 nM
B18: VL_R054Q (antibody, V domains shown)
VH: B1 VH with Y55S, Y57N
VL: B8 VL with R53Q
notes: Antibody 4 with one substitution; also called ANTIBODY 34

- Kd [8]: 1.58 nM
B19: VL_G050S (antibody, V domains shown)
VH: B1 VH with Y55S, Y57N
VL: B8 VL with G49S
notes: Antibody 4 with one substitution; also called ANTIBODY 29

- Kd [10]: 0.73 nM
B21: VL_K051H (antibody, V domains shown)
VH: B1 VH with Y55S, Y57N
VL: B8 VL with K50H
notes: Antibody 4 with one substitution; also called ANTIBODY 31

- binding result (IL-4): no binding (tested: 10 µg/mL)
- binding result (IL-7): no binding (tested: 10 µg/mL)
- binding result (IL-2): no binding (tested: 10 µg/mL)
- binding result (IL-21): no binding (tested: 10 µg/mL)
- binding result (IL-9): no binding (tested: 10 µg/mL)
- binding result [11]: no binding (tested: 10 µg/mL)
- Kd [12]: 0.154 nM and 0.157 nM
- koff [12]: 3.92e-05 s⁻¹ and 3.89e-05 s⁻¹
- kon [12]: 249000 M⁻¹ s⁻¹ and 254000 M⁻¹ s⁻¹
- Max IC50 (pM), NK-92 proliferation assay [13]: 16.6 pM
- Mean IC50 (pM), NK-92 proliferation assay [13]: 13.3 pM
- Min IC50 (pM), NK-92 proliferation assay [13]: 10.6 pM
B23: Antibody 70b (antibody, human IgG1, lambda)
heavy: QVQLQESGPGLVKPSGTLSLTCAVSGGSISSSNWWSWVRQPPGKGLEWIGEIYHYGYTNYNPSLKSRVTISVDKSKNQFSLKLSSVTAADTAVYYCAREGIGWPSFDYWGQGTLVTVSSASTKGPSVFPLAPSSKSTSGGTAALGCLVKDYFPEPVTVSWNSGALTSGVHTFPAVLQSSGLYSLSSVVTVPSSSLGTQTYICNVNHKPSNTKVDKKVEPKSCDKTHTCPPCPAPELLGGPSVFLFPPKPKDTLYITREPEVTCVVVDVSHEDPEVKFNWYVDGVEVHNAKTKPREEQYNSTYRVVSVLTVLHQDWLNGKEYKCKVSNKALPAPIEKTISKAKGQPREPQVYTLPPSRDELTKNQVSLTCLVKGFYPSDIAVEWESNGQPENNYKTTPPVLDSDGSFFLYSKLTVDKSRWQQGNVFSCSVMHEALHNHYTQKSLSLSPG
light: SSELTQDPAASVALGQTVRITCQGDTLRSYYASWYQQKPGQAPILVIYGKNNRPSGIPDRFSGSSSGNTASLTITGAQAEDEADYYCNSRDLSGKNLVFGGGTKLTVLGQPKAAPSVTLFPPSSEELQANKATLVCLISDFYPGAVTVAWKADSSPVKAGVETTTPSKQSNNKYAASSYLSLTPEQWKSHRSYSCQVTHEGSTVEKTVAPTECS

- binding result (IL-4): no binding (tested: 10 µg/mL)
- binding result (IL-7): no binding (tested: 10 µg/mL)
- binding result (IL-2): no binding (tested: 10 µg/mL)
- binding result (IL-21): no binding (tested: 10 µg/mL)
- binding result (IL-9): no binding (tested: 10 µg/mL)
- binding result [11]: no binding (tested: 10 µg/mL)
- Kd [12]: 0.174 nM and 0.193 nM
- koff [12]: 4.31e-05 s⁻¹ and 4.58e-05 s⁻¹
- kon [12]: 237000 M⁻¹ s⁻¹ and 247000 M⁻¹ s⁻¹
- Max IC50 (pM), NK-92 proliferation assay [13]: 20.9 pM
- Mean IC50 (pM), NK-92 proliferation assay [13]: 15.7 pM
- Min IC50 (pM), NK-92 proliferation assay [13]: 11.7 pM
B24: Antibody 70e (antibody, human IgG4 S228P, lambda)
heavy: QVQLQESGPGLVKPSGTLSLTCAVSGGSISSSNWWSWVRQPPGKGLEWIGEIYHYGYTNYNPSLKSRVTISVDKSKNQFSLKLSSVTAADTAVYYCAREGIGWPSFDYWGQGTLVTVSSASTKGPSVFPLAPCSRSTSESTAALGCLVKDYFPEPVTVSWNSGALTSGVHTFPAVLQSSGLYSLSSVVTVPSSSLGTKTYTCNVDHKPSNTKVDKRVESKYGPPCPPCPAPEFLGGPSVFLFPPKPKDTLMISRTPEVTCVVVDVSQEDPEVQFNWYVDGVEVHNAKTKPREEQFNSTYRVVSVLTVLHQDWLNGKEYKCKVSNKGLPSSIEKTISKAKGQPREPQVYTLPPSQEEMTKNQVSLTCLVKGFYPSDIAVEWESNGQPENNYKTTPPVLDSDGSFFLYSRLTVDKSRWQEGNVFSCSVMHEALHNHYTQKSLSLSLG
light: B23 light

More lines, now with the values behind:

B2: Antibody 80 (antibody, V domains shown)
VH: B1 VH
VL: B8 VL with N29S, S92E
- IC 50 (NK-92) in pM [3]: 22.8 pM

B3: Antibody 74 (antibody, V domains shown)
VH: B1 VH
VL: B8 VL with D91E
- IC 50 (NK-92) in pM [3]: 33.9 pM

B4: Antibody 78 (antibody, V domains shown)
VH: B1 VH
VL: B8 VL with N29S, D91E
- IC 50 (NK-92) in pM [3]: 168 pM

B5: Antibody 77 (antibody, V domains shown)
VH: B1 VH
VL: B8 VL with S92F
- IC 50 (NK-92) in pM [3]: 5.69 pM

B6: Antibody 75 (antibody, V domains shown)
VH: B1 VH
VL: B8 VL with S92L
- IC 50 (NK-92) in pM [3]: 3.14 pM

B7: VL_K051A (antibody, V domains shown)
VH: B1 VH with Y55S, Y57N
VL: B8 VL with K50A
notes: Antibody 4 with one substitution; also called ANTIBODY 30
- Kd [4]: 0.942 nM

B9: Antibody 81 (antibody, V domains shown)
VH: B1 VH
VL: B8 VL with N29S, S92F
- IC 50 (NK-92) in pM [3]: 17.3 pM

B10: Antibody 76 (antibody, V domains shown)
VH: B1 VH
VL: B8 VL with S92E
- IC 50 (NK-92) in pM [3]: 7.69 pM

B11: Antibody 73 (antibody, V domains shown)
VH: B1 VH
VL: B8 VL with N29S
- IC 50 (NK-92) in pM [3]: 11.8 pM

B12: Antibody 72 (antibody, V domains shown)
VH: B1 VH with I84S
VL: B8 VL with N29S, S92F
- IC 50 (NK-92) in pM [3]: 20.9 pM

B13: Antibody 79 (antibody, V domains shown)
VH: B1 VH
VL: B8 VL with N29S, S92L
- IC 50 (NK-92) in pM [3]: 12.4 pM

B15: VL_R054L (antibody, V domains shown)
VH: B1 VH with Y55S, Y57N
VL: B8 VL with R53L
notes: Antibody 4 with one substitution; also called ANTIBODY 33
- Kd [6]: 0.845 nM

B17: VL_K051L (antibody, V domains shown)
VH: B1 VH with Y55S, Y57N
VL: B8 VL with K50L
notes: Antibody 4 with one substitution; also called ANTIBODY 32
- Kd [4]: 0.865 nM

B20: VL_N030S (antibody, V domains shown)
VH: B1 VH with Y55S, Y57N
VL: B8 VL with N29S
notes: Antibody 4 with one substitution; also called ANTIBODY 51
- Kd [9]: 2.41 nM

B22: VL_R054Y (antibody, V domains shown)
VH: B1 VH with Y55S, Y57N
VL: B8 VL with R53Y
notes: Antibody 4 with one substitution; also called ANTIBODY 35
- Kd [6]: 0.784 nM
